# Measurements published in patent US7375080B1, “Immobilized lactoferrin (Im-LF) antimicrobial agents and uses thereof” (priority 1999, dated 2008).
# Where “and” joins values, the source holds several entries; their conditions need not be identical. Identical values can stand only once.
# B1: lactoferrin (protein, UniProt P24627 20-708, looked up)
# Lactotransferrin: APRKNVRWCTISQPEWFKCRRWQWRMKKLGAPSITCVRRAFALECIRAIAEKKADAVTLDGGMVFEAGRDPYKLRPVAAEIYGTKESPQTHYYAVAVVKKGSNFQLDQLQGRKSCHTGLGRSAGWIIPMGILRPYLSWTESLEPLQGAVAKFFSASCVPCIDRQAYPNLCQLCKGEGENQCACSSREPYFGYSGAFKCLQDGAGDVAFVKETTVFENLPEKADRDQYELLCLNNSRAPVDAFKECHLAQVPSHAVVARSVDGKEDLIWKLLSKAQEKFGKNKSRSFQLFGSPPGQRDLLFKDSALGFLRIPSKVDSALYLGSRYLTTLKNLRETAEEVKARYTRVVWCAVGPEEQKKCQQWSQQSGQNVTCATASTTDDCIVLVLKGEADALNLDGGYIYTAGKCGLVPVLAENRKSSKHSSLDCVLRPTEGYLAVAVVKKANEGLTWNSLKDKKSCHTAVDRTAGWNIPMGLIVNQTGSCAFDEFFSQSCAPGADPKSRLCALCAGDDQGLDKCVPNSKEKYYGYTGAFRCLAEDVGDVAFVKNDTVWENTNGESTADWAKNLNREDFRLLCLDGTRKPVTEAQSCHLAVAPNHAVVSRSDRAAHVKQVLLHQQALFGKNGKNCPDKFCLFKSETKNLLFNDNTECLAKLGGRPTYEEYLGTEYVTAIANLKKCSTSPLLEACAFLTR
# What was measured:
# [1] = system: E. coli serotype O157:H7 (strain ATCC43895); assay type: cell-based
# [2] = system: E. coli O157:H7 strain ATCC43895; experiment: Microbial adhesion assay: detachment of 3H-thymidine labeled bacteria from beef tissue by wash; assay type: cell-based
molecule,measurement,setting,value
B1,GROWTH (%),[1],36%
same,effect on growth of the E. coli,[1],reduced the growth
same,% BACTERIAL CELLS DETACHED IN 1-MINUTE,[2],90% and 85% and 78%
same,bacterial detachment,[2],effective bacterial detachment
